Article PMC10320249 (eBioMedicine, 2023)

What was measured:
[1] = target: CD38 expressed on the plasma membrane of tumour cell lines (Homo sapiens, UniProt P28907); assay: cell-based or functional assay
[2] = target: recombinant human CD38 (soluble CD38) (Homo sapiens, UniProt P28907); assay: BLI

B1: daratumumab (antibody, V domains shown)
VH: EVQLLESGGGLVQPGGSLRLSCAVSGFTFNSFAMSWVRQAPGKGLEWVSAISGSGGGTYYADSVKGRFTISRDNSKNTLYLQMNSLRAEDTAVYFCAKDKILWFGEPVFDYWGQGTLVTVSS
VL: not shown
CD38 cyclase activity on Daudi cells, EC50 [1]: 0.179 µg/mL | CD38 hydrolase activity on Daudi cells, EC50 [1]: 0.028 µg/mL | Kd [2]: 3.9 nM

B2: HexaBody-CD38 (GEN3014), hexamerization-enhanced human IgG1 with the E430G Fc mutation (antibody, V domains shown)
VH: QVQLVQSGAEVKKPGSSVKVSCKAFGGTFSSYAISWVRQAPGQGLEWMGRIIRFLGIANYAQKFQGRVTLIADKSTNTAYMELSSLRSEDTAVYYCAGEPGERDPDAVDIWGQGTMVTVSS
VL: DIQMTQSPSSLSASVGDRVTITCRASQGIRSWLAWYQQKPEKAPKSLIYAASSLQSGVPSRFSGSGSGTDFTLTISSLQPEDFATYYCQQYNSYPLTFGGGTKVEIK
CD38 cyclase activity on Daudi cells (NGD+ to cGDPR), EC50 [1]: 0.419 µg/mL | CD38 hydrolase activity on Daudi cells (ε-NAD+ to ε-ADPR), EC50 [1]: 0.335 µg/mL | Kd [2]: 1.1 nM
